The results in this text go back to patent US20190016825A1.

Assay [1] concerns the target biotin-PCSK9-his (UniProt Q8NBP7). The experiment in a line: competitive ELISA, one antibody coated, biotin-PCSK9-his plus 50-fold competitor; competitor: 21B12.
For assay [2] the target is unchanged. Description: competitive ELISA, one antibody coated, biotin-PCSK9-his plus 50-fold competitor; competitor: h001-4.

With “21B12 (U.S. Pat. No. 8,030,457B2) (antibody)”, the IR (%) is 97.8% in the assay with biotin-PCSK9-his [1] and 3.86% with biotin-PCSK9-his [2].
